Publication PMC10073072

T1: SLC39A5^369–380 peptide, Q6ZMH5
T1 chain: GHQGHSHGHQGGY


What was measured:
[1] = target: T1, SLC39A5^369–380 peptide, Q6ZMH5; experiment: ITC; conditions: chain shown with the change;; parent: 9.0 µM
METTL9^M6 R214A (human) = METTL9^M6 R214A (human) (UniProt Q9H1A3); experiment: ITC; METTL9 protein and synthetic peptide; conditions and who was titrated not shown

Binder	Kd [1]	fold weaker binding affinity than METTL9^M6 (METTL9^M6 R214A (human))
METTL9^M6 (METTL9^46–318 with six mutations), Q9H1A3 R214A (protein) HMAAGGRKENHQWYVCNREKLCESLQAVFVQSYLDQGTQIFLNNSIEKSGWAAIQAYHSAVSSAFSLAMSRTSINGLLGRGSMFVFSPDQFQRLLKINPDWKTHRLLDLGAGDGEVTKIMSPHFEEIYATELSETMIWQLQKKKYRVLGINEWQNTGFQYDVISCLNLLDACDQPLTLLKDIRSVLEPTRGRVILALVLPFHPYVENVGGKWEKPSEILEIKGQNWEEQVNSLPEVFRKAGFVIEAFTRLPYLCEGDMYNDYYVLDDAVFVLKPV	51 µM	
GHQGHSHGHQGGY [SLC39A5^369–380 peptide]		5 fold
